Biological target: Src kinase (human, endogenous in the HCC cell lines HEP3B and SNU475) (human, UniProt P12931 2-536, phosphorylation read out with a polyclonal antibody to Tyr419 of Src kinase)
Assay: cell-based or functional assay

B1: pNaKtide (peptide)
peptide: not shown
  cell proliferation (MTT assay), IC50, Hep3 cells: 62.5 µM
  cell proliferation (MTT assay), IC50, SNU475 cells: 6 µM

Source: patent US20240360176A1 (MARSHALL UNIVERSITY RESEARCH, published 2024)
